Measured values taken from article PMC12615485, “New dengue virus inhibitors targeting NS3-NS5 interaction identified by in silico screening” (Frontiers in Microbiology, 2025).

Key:
[1] = biological target: NHS-NS5(270-900): 6His-NS5 RdRp(270-900) labelled with RED-NHS (DENV-2 NGC strain); test: MST
[2] = biological target: 6His-NS5 RdRp(270-900) of DENV-2 NGC strain (DENV-2 NGC strain); test: ELISA

With “6His-NS3(177-618), helicase portion of NS3 (domain or fragment)” as the substance, how does the Kd [1] read?
Its Kd is 7.2 µM.

With NS3(566-585) peptide of DENV-2 as the substance, how does the IC50 [2] read?
Its IC50 is 127 µM.
